Assay results as given in patent publication US20060035823A1 (published 2006).

Legend:
[1] = target: T1, GAL4 DNA-binding domain (BD)/full-length TRAF-3 fusion construct (pGBT9/TRAF-3) (human, UniProt P04386 1-147; Q13114 1-568); assay: yeast two-hybrid
T1 construct: Yeast two-hybrid fusion expressed in yeast Y190; BD is put first as in the vector; also called BD/TRAF-3; bait construct

[2] = target: GAL4 BD/TRAF-4 fusion (pGBT9/TRAF-4) (UniProt P04386 1-147; Q9BUZ4 1-470, limits assumed); assay: yeast two-hybrid (β-gal, growth without His)
[3] = target: GAL4 BD/TRAF-6 fusion (pGBT9/TRAF-6) (UniProt P04386 1-147; Q9Y4K3 1-522, limits assumed); assay: yeast two-hybrid (β-gal, growth without His)
[4] = target: GAL4 BD/TRAF-5 fusion (pGBT9/TRAF-5) (UniProt P04386 1-147; O00463 1-557, limits assumed); assay: yeast two-hybrid (β-gal, growth without His)
[5] = target: GAL4 BD/TRAF-2 fusion (pGBT9/TRAF-2) (UniProt P04386 1-147; Q12933 1-501, limits assumed); assay: yeast two-hybrid (β-gal, growth without His)
[6] = target: T2, HA-tagged β-galactosidase (pCGN/LacZ) (UniProt P00722 1-1024 = β-galactosidase); assay: co-immunoprecipitation from 293T lysates, anti-HA IP, anti-X-press blot
T2 construct: Specificity control, over-expressed in 293T cells; also called HA-LacZ; RA-LacZ; not shown: N-terminal hemagglutinin (HA) tag of vector pCGN
T2 sequence (P00722 whole entry): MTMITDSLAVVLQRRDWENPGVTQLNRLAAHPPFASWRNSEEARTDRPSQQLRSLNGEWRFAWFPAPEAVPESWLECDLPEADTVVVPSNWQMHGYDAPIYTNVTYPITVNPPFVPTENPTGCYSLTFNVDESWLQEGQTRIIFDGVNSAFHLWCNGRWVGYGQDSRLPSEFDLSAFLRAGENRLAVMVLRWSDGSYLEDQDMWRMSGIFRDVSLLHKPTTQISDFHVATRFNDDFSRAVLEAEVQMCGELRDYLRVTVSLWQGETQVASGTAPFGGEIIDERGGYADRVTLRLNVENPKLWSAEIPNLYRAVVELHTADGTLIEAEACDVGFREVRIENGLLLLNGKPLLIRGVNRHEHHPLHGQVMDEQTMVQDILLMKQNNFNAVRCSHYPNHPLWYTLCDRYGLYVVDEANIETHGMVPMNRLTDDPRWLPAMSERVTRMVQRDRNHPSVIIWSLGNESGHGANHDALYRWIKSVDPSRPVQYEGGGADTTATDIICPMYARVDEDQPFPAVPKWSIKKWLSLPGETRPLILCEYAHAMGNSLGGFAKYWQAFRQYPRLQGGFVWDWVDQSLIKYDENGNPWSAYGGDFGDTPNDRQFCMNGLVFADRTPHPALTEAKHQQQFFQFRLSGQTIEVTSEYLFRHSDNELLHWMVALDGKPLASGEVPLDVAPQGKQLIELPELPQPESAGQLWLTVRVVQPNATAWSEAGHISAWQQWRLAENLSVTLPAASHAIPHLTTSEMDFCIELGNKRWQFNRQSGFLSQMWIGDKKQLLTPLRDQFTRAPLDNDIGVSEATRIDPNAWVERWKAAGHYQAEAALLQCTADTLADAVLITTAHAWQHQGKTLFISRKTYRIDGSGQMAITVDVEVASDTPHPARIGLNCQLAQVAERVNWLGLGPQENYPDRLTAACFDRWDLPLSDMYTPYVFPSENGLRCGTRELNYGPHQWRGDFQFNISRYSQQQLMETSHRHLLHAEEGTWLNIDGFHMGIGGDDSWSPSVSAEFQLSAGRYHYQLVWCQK
Method: Samples were separated by 10% SDS PAGE and transferred to Immobilon-P PVDF membranes (Millipore Corporation, Bedford, Mass.). Membranes were washed with 1× Tris Buffered Saline (TBS) containing 50 mM Tris pH 7.5 (Fisher Scientific) and 150 mM sodium chloride (Fisher Scientific), and then blocked in 1% Blocking Reagent (Roche Molecular Biochemicals) dissolved in 1×TBS.
(§1) Membranes were probed with anti-Xpress, diluted 1:5000 in 0.5% Blocking Reagent, or anti-HA (12CA5) at 0.4 μg/ml (Roche Molecular Biochemicals) in 0.5% Blocking Reagent. Membranes were incubated for 1 hour, then washed twice with TBS containing 0.1% Tween-20 (Sigma Chemical Co.) (1× TBST) and twice with 0.5% Blocking Reagent. Membranes were incubated with anti-mouse IgG-Peroxidase (Roche Molecular Biochemicals) at 1:2500 in 0.5% Blocking Reagent for 60 minutes at room temperature, then washed 4 times in 1× TBST. Proteins were detected with the BM Chemiluminescence Blotting Substrate (POD) (Roche Molecular Biochemicals). Following detection, membranes were stripped of antibodies by incubation with stripping solution containing 62.5 mM Tris pH 6.7, 2% SDS, and 50 mM 2-mercaptoethanol (Fisher Scientific) for 30 minutes at 50° C. The membranes were rinsed with distilled water and then with 1×TBS. The stripped membranes were blocked and reprobed with antibodies as described above.

[7] = target: T3, His-tagged TRAF-2 (pEBVHis/TRAF-2) (UniProt Q12933 1-501); assay: co-immunoprecipitation from 293T lysates, anti-X-press IP, anti-HA blot
T3 construct: Specificity control, over-expressed in 293T cells
T3 sequence (looked up): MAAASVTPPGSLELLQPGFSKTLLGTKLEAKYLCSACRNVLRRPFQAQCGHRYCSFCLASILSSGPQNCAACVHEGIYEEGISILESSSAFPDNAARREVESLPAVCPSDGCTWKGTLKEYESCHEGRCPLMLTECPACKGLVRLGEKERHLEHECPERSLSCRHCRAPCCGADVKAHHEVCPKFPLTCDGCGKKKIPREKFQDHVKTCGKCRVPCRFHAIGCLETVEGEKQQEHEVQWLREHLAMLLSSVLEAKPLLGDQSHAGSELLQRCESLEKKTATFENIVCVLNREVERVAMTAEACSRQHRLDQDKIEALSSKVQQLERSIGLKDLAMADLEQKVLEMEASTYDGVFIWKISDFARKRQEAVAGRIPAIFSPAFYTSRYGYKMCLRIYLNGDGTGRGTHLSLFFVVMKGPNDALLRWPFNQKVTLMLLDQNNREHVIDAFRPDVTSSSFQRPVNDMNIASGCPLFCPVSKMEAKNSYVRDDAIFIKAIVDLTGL
Method: Membranes were washed with 1× Tris Buffered Saline (TBS) containing 50 mM Tris pH 7.5 (Fisher Scientific) and 150 mM sodium chloride (Fisher Scientific), and then blocked in 1% Blocking Reagent (Roche Molecular Biochemicals) dissolved in 1×TBS.
as §1

[8] = target: T4, GAL4 BD fusion of TRAF-3 aa 110-265 (Zn fingers only), in pGBT9 (human, UniProt P04386 1-147; Q13114 110-265); assay: yeast two-hybrid
T4 construct: The range is printed without its hyphen

[9] = target: GAL4 BD fusion of TRAF-3 aa 267-343 (coiled-coil domain only), in pGBT9 (human, UniProt P04386 1-147; Q13114 267-343); assay: yeast two-hybrid

B1: GAL4 AD fusion of p62 nucleoporin aa 302-391 (deletion mutant in pGAD424) (other, not shown: large carriers; small tags and cut ends)
chain: IPSNTAAAVTAPPGPGAAAGAAASSAMTYAQLESLINKWSLELEDQERHFLQQATQVNAWDRTLIENGEKITSLHREVEKVKLDQKRLDQ
B1: no binding [1].

B2: GAL4 AD fusion of p62 nucleoporin aa 270-522 (pACT/p62(270-522)) (other, UniProt P37198 270-522, looked up, not shown: large carriers)
chain: TTSTAATATATTTSSSSTTGFALNLKPLAPAGIPSNTAAAVTAPPGPGAAAGAAASSAMTYAQLESLINKWSLELEDQERHFLQQATQVNAWDRTLIENGEKITSLHREVEKVKLDQKRLDQELDFILSQQKELEDLLSPLEELVKEQSGTIYLQHADEEREKTYKLAENIDAQLKRMAQDLKDIIEHLNTSGAPADTSDPLQQICKILNAHMDSLQWIDQNSALLQRKVEEVTKVCEGRRKEQERSFRITFD
B2: no binding [2]; no binding [3]; no binding [4]. B2: no binding [5].

B3: His-tagged TRAF-3 (pEBVHis/TRAF-3), amino-terminal poly-histidine tag and X-press epitope (other, human, UniProt Q13114 1-568, looked up, not shown: small tags and cut ends)
chain: MESSKKMDSPGALQTNPPLKLHTDRSAGTPVFVPEQGGYKEKFVKTVEDKYKCEKCHLVLCSPKQTECGHRFCESCMAALLSSSSPKCTACQESIVKDKVFKDNCCKREILALQIYCRNESRGCAEQLMLGHLLVHLKNDCHFEELPCVRPDCKEKVLRKDLRDHVEKACKYREATCSHCKSQVPMIALQKHEDTDCPCVVVSCPHKCSVQTLLRSELSAHLSECVNAPSTCSFKRYGCVFQGTNQQIKAHEASSAVQHVNLLKEWSNSLEKKVSLLQNESVEKNKSIQSLHNQICSFEIEIERQKEMLRNNESKILHLQRVIDSQAEKLKELDKEIRPFRQNWEEADSMKSSVESLQNRVTELESVDKSAGQVARNTGLLESQLSRHDQMLSVHDIRLADMDLRFQVLETASYNGVLIWKIRDYKRRKQEAVMGKTLSLYSQPFYTGYFGYKMCARVYLNGDGMGKGTHLSLFFVIMRGEYDALLPWPFKQKVTLMLMDQGSSRRHLGDAFKPDPNSSSFKKPTGEMNIASGCPVFVAQTVLENGTYIKDDTIFIKVIVDTSDLPDP
notes: Over-expressed in 293T cells; tested in cell lysates
B3: no binding [6].

B4: HA-tagged p62(336-522) (pCGN/p62(336-522)), N-terminal hemagglutinin tag (other)
chain: LINKWSLELEDQERHFLQQATQVNAWDRTLIENGEKITSLHREVEKVKLDQKRLDQELDFILSQQKELEDLLSPLEELVKEQRATIYLQHADEERQKTYKLAENIDAQLKRMAQDLKDIIEHLNTSGAPADTSDPLQQICKILNAHMDSLQWIDQNSALLQRKVEEVTKVCVGRRKEQERSFRITFD
notes: not shown: N-terminal hemagglutinin (HA) tag of vector pCGN
B4: no binding [7].

B5: GAL4 AD fusion of p62 nucleoporin aa 336-522 (pACT/p62(336-522)) (other, not shown: large carriers)
chain: LINKWSLELEDQERHFLQQATQVNAWDRTLIENGEKITSLHREVEKVKLDQKRLDQELDFILSQQKELEDLLSPLEELVKEQRATIYLQHADEERQKTYKLAENIDAQLKRMAQDLKDIIEHLNTSGAPADTSDPLQQICKILNAHMDSLQWIDQNSALLQRKVEEVTKVCVGRRKEQERSFRITFD
B5: no binding [8]; no binding [9].
